Square brackets hold non-standard residues; d marks the D form. Ends that are not written are not given here. dChg = N[C@@H](C(=O)O)C1CCCCC1; Chg = N[C@H](C(=O)O)C1CCCCC1; Orn = NCCC[C@H](N)C(=O)O; Dap = NC[C@H](N)C(=O)O; Sar = CNCC(=O)O
What was measured:
oxytocin receptor = target: T1, oxytocin receptor (Rattus norvegicus, UniProt P70536); test: 3H-oxytocin binding inhibition, rat uterus cell membranes; conditions: for % Inhibition at 1 μM Oxytocin Receptor (Table 30) / % Inhibition at 1 μM Oxytocin Receptor (Table 29): rat uterus membranes, Re-complexed; for activity at oxytocin receptor: within the Table 30 series
T1 construct: cell membranes prepared from rat uterus; from tissue; host or cells: rat uterus membranes
T1 sequence (P70536 1-388): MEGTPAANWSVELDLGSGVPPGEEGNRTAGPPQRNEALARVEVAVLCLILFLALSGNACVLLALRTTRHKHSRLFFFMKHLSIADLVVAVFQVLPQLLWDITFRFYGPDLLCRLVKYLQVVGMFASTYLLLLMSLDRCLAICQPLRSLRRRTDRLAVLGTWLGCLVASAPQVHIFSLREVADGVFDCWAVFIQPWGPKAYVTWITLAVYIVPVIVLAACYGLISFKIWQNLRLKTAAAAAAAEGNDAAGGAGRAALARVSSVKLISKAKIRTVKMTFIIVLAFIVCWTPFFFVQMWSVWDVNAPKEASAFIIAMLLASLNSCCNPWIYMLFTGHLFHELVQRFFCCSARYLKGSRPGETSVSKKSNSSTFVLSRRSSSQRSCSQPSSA
Method: The screening of metallopeptides for binding to oxytocin receptor was done using cell membranes prepared from rat uterus. […] The membrane preparations (10-50 μg/well) were incubated with […] ^3H-oxytocin in HEPES Buffer containing 0.2% bovine serum albumin along with a test compound (1 μM final assay concentration) for 2 hours at 4° C. Non-specific binding was determined by addition of 10^−6 M oxytocin instead of the test compound. After incubation, the membranes were filtered and washed three times with ice-cold PBS. The membranes were air-dried and punched directly into scintillation vials. After addition of the scintillation cocktail, the vials were capped and gently shaken for 12 hours to dissolve the radioactivity contained in the filters. The vials were then read for tritium counts in a scintillation counter. Specific binding was determined as the radioactivity in wells containing ^3H-oxytocin alone minus the radioactivity in wells containing 10^−6 M oxytocin. The assay was performed in triplicates. The activity profile for the test compounds were generated by their ability to inhibit specific binding of the radiotracer to its receptor.

vasopressin-1 receptor = target: T2, vasopressin-1 receptor (Rattus norvegicus, UniProt P30560); test: 3H-vasopressin-1 antagonist binding inhibition, rat liver cell membranes; conditions: Re-complexed
T2 construct: cell membranes prepared from rat liver; from tissue; host or cells: rat liver membranes
T2 sequence (P30560 whole entry): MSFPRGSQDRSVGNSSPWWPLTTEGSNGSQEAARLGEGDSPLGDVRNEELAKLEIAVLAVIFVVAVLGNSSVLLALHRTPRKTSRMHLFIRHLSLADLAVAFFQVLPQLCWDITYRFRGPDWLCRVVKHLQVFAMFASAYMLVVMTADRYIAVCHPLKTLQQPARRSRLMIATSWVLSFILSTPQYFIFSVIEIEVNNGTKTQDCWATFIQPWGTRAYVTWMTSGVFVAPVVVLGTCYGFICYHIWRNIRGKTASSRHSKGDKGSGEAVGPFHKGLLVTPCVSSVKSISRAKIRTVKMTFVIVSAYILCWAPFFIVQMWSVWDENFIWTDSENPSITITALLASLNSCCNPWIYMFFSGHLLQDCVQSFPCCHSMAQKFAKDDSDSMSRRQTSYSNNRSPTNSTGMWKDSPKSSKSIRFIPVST
Method: The screening of compounds for vasopressin-1 receptor was performed using cell membranes prepared from rat liver. The assay was essentially performed as described above for the oxytocin receptor assay. In this assay 2-4 nM ^3H-vasopressin-1 antagonist (obtained from Perkin Elemer-NEN Life Sciences) was used as the radiotracer and Arg^8-vasopressin (1 μM final concentration in the assay) was used to determine non-specific binding. The assay was performed in triplicates. Activity profile for the test compounds were generated by their ability to inhibit specific binding of the radiotracer to its receptor.

angiotensin-II receptor = target: T3, angiotensin-II receptor (Homo sapiens, UniProt P30556); test: 125I-Tyr4,Sar1,Ile8-Angiotensin II binding inhibition, human neuroblastoma (KAN-TS) cell membranes; conditions: for % Inhibition at 1 μM (Angiotensin Receptor): KAN-TS cell membranes, Re-complexed
T3 construct: cell membranes obtained from human neuroblastoma cells (KAN-TS); endogenous in cells; host or cells: KAN-TS human neuroblastoma cells (membranes)
T3 sequence (P30556 1-359): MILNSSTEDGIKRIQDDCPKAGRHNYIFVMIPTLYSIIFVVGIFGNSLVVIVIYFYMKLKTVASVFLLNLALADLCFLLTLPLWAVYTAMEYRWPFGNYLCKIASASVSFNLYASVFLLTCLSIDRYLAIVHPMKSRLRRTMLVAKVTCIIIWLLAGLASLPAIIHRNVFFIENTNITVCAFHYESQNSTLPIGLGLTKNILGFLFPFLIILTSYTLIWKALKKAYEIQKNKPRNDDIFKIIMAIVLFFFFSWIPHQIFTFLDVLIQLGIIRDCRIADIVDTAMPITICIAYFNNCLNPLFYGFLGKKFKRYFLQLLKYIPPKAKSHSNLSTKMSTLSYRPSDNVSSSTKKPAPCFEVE
Method: The screening of compounds for binding to the angiotensin-II receptor was performed using cell membranes obtained from human neuroblastoma cells (KAN-TS). The assay was performed in triplicates, generally as described in Example 4 for oxytocin, except for measurement of receptor bound radioactivity. For angiotensin, a radioiodinated tracer ligand was used (instead of a tritiated ligand), which radioiodinated tracer facilitated direct measurement of bound radioactivity using a gamma counter. A final 1-3 nM concentration of ^125I-Tyr^4, Sar^1, Ile^8-Angiotensin II ligand (obtained from Perkin Elemer-NEN Life Sciences) was used as radiotracer and angiotensin-II (1 μM final assay concentration) was used to measure non-specific binding. After filtration of the incubation medium, followed by washings, drying the filters and punching the filters into test tubes, the filters were counted for radioactivity in a gamma counter. An activity profile for the test compounds was generated by ability to inhibit specific binding of the radiotracer to its receptor.

Substance	% Inhibition at 1 μM Vasopressin-1 Receptor (Table 30) (vasopressin-1 receptor) [%]	% Inhibition at 1 μM Oxytocin Receptor (Table 29) (oxytocin receptor) [%]	also measured
Ala-Tyr-Cys-Ile-Gln-Asn-Ala-Pro-Leu-Gly-NH2 (AYCIQNAPLG-NH2; not fully specified (bridges); printed as Ala-Tyr-Cys-Ile-Gln-Asn-Ala-Pro-Leu-Gly-NH2; also: oxorhenium(V) N3S1 metal chelate (Re=O)) [SEQ ID NO:158]	1	–	% Inhibition at 1 μM Oxytocin Receptor (Table 30) (oxytocin receptor): 6%
Ala-Tyr-Ile-Cys-Gln-Asn-Ala-Pro-Leu-Gly-NH2 (AYICQNAPLG-NH2; not fully specified (bridges); printed as Ala-Tyr-Ile-Cys-Gln-Asn-Ala-Pro-Leu-Gly-NH2; also: oxorhenium(V) N3S1 metal chelate (Re=O)) [SEQ ID NO:157]	0	–	% Inhibition at 1 μM Oxytocin Receptor (Table 30) (oxytocin receptor): 0%
Ala-Tyr-Ile-Gln-Asn-Ala-Ala-Cys-Leu-Gly-NH2 (AYIQNAACLG-NH2; not fully specified (bridges); printed as Ala-Tyr-Ile-Gln-Asn-Ala-Ala-Cys-Leu-Gly-NH2; also: oxorhenium(V) N3S1 metal chelate (Re=O)) [SEQ ID NO:152]	1	–	% Inhibition at 1 μM Oxytocin Receptor (Table 30) (oxytocin receptor): 0%
Ala-Tyr-Ile-Gln-Asn-Ala-Ala-Leu-Cys-Gly-NH2 (AYIQNAALCG-NH2; not fully specified (bridges); printed as Ala-Tyr-Ile-Gln-Asn-Ala-Ala-Leu-Cys-Gly-NH2; also: oxorhenium(V) N3S1 metal chelate (Re=O)) [SEQ ID NO:151]	0	–	% Inhibition at 1 μM Oxytocin Receptor (Table 30) (oxytocin receptor): 0%
Ala-Tyr-Ile-Gln-Asn-Ala-Ala-Leu-Gly-Cys-NH2 (AYIQNAALGC-NH2; not fully specified (bridges); printed as Ala-Tyr-Ile-Gln-Asn-Ala-Ala-Leu-Gly-Cys-NH2; also: oxorhenium(V) N3S1 metal chelate (Re=O)) [SEQ ID NO:150]	0	–	% Inhibition at 1 μM Oxytocin Receptor (Table 30) (oxytocin receptor): 0%
Ala-Tyr-Ile-Gln-Asn-Ala-Cys-Ala-Leu-Gly-NH2 (AYIQNACALG-NH2; not fully specified (bridges); printed as Ala-Tyr-Ile-Gln-Asn-Ala-Cys-Ala-Leu-Gly-NH2; also: oxorhenium(V) N3S1 metal chelate (Re=O)) [SEQ ID NO:154]	0	–	activity at oxytocin receptor (oxytocin receptor): also active
Ala-Tyr-Ile-Gln-Asn-Ala-Cys-Pro-Leu-Gly-NH2 (AYIQNACPLG-NH2; not fully specified (bridges); printed as Ala-Tyr-Ile-Gln-Asn-Ala-Cys-Pro-Leu-Gly-NH2; also: oxorhenium(V) N3S1 metal chelate (Re=O)) [SEQ ID NO:153]	0	–	% Inhibition at 1 μM Oxytocin Receptor (Table 30) (oxytocin receptor): 2%
Ala-Tyr-Ile-Gln-Asn-Ala-Pro-Leu-Gly-Cys-NH2 (AYIQNAPLGC-NH2; not fully specified (bridges); printed as Ala-Tyr-Ile-Gln-Asn-Ala-Pro-Leu-Gly-Cys-NH2; also: oxorhenium(V) N3S1 metal chelate (Re=O)) [SEQ ID NO:149]	0	–	% Inhibition at 1 μM Oxytocin Receptor (Table 30) (oxytocin receptor): 6%
Ala-Tyr-Ile-Gln-Asn-Cys-Ala-Pro-Leu-Gly-NH2 (AYIQNCAPLG-NH2; not fully specified (bridges); printed as Ala-Tyr-Ile-Gln-Asn-Cys-Ala-Pro-Leu-Gly-NH2; also: oxorhenium(V) N3S1 metal chelate (Re=O)) [SEQ ID NO:155]	0	–	activity at oxytocin receptor (oxytocin receptor): maximal activity
Ala-Tyr-Ile-Gln-Cys-Asn-Ala-Pro-Leu-Gly-NH2 (AYIQCNAPLG-NH2; not fully specified (bridges); printed as Ala-Tyr-Ile-Gln-Cys-Asn-Ala-Pro-Leu-Gly-NH2; also: oxorhenium(V) N3S1 metal chelate (Re=O)) [SEQ ID NO:156]	0	–	activity at oxytocin receptor (oxytocin receptor): also active
Caca-D-Trp-Ile-Cys-Thr-Dap-Ala-Pro-Orn-NH2	–	0	–
Caca-D-Trp-Ile-Thr-Cys-Dap-Ala-Pro-Orn-NH2	–	0	% Inhibition at 1 μM Vasopressin-1 Receptor (Table 29) (vasopressin-1 receptor): 0%
Caca-D-Trp-Ile-Thr-Dap-Ala-Ala-Cys-Orn-NH2	–	0	% Inhibition at 1 μM Vasopressin-1 Receptor (Table 29) (vasopressin-1 receptor): 0%
Caca-D-Trp-Ile-Thr-Dap-Ala-Ala-Orn-Cys-NH2	–	0	–
Caca-D-Trp-Ile-Thr-Dap-Ala-Cys-Ala-Orn-NH2	–	0	% Inhibition at 1 μM Vasopressin-1 Receptor (Table 29) (vasopressin-1 receptor): 0%
Caca-D-Trp-Ile-Thr-Dap-Ala-Cys-Pro-Orn-NH2	–	0	% Inhibition at 1 μM Vasopressin-1 Receptor (Table 29) (vasopressin-1 receptor): 0%
Caca-D-Trp-Ile-Thr-Dap-Cys-Ala-Pro-Orn-NH2	–	9	–
Pmp-D-Trp-Cys-Ile-Thr-Dap-Ala-Pro-Orn-NH2	–	0	–
Sar-Arg-Cys-Val-Tyr-Ile-His-Pro-Thr ([Sar]RCVYIHPT; not fully specified (bridges); printed as Sar-Arg-Cys-Val-Tyr-Ile-His-Pro-Thr; also: oxorhenium(V) N3S1 metal chelate (Re=O)) [SEQ ID NO:165]	–	–	% Inhibition at 1 μM (Angiotensin Receptor) (angiotensin-II receptor): 1%
Sar-Arg-Val-Cys-Tyr-Ile-His-Pro-Thr ([Sar]RVCYIHPT; not fully specified (bridges); printed as Sar-Arg-Val-Cys-Tyr-Ile-His-Pro-Thr; also: oxorhenium(V) N3S1 metal chelate (Re=O)) [SEQ ID NO:164]	–	–	% Inhibition at 1 μM (Angiotensin Receptor) (angiotensin-II receptor): 1%
Sar-Arg-Val-Tyr-Ile-His-Cys-Gly-Thr ([Sar]RVYIHCGT; not fully specified (bridges); printed as Sar-Arg-Val-Tyr-Ile-His-Cys-Gly-Thr; also: oxorhenium(V) N3S1 metal chelate (Re=O)) [SEQ ID NO:166]	–	–	percent inhibition at angiotensin receptor compared (angiotensin-II receptor; Gly for Pro substitution): significantly less than in SEQ ID NO:161
Sar-Arg-Val-Tyr-Ile-His-Gly-Cys-Thr ([Sar]RVYIHGCT; not fully specified (bridges); printed as Sar-Arg-Val-Tyr-Ile-His-Gly-Cys-Thr; also: oxorhenium(V) N3S1 metal chelate (Re=O)) [SEQ ID NO:160]	–	–	% Inhibition at 1 μM (Angiotensin Receptor) (angiotensin-II receptor): 5%
[Chg][dW]CIT[Dap]AP[Orn]-NH2	–	0	% Inhibition at 1 μM Vasopressin-1 Receptor (Table 29) (vasopressin-1 receptor): 0%
[dChg][dW]CIT[Dap]AP[Orn]-NH2	–	0	% Inhibition at 1 μM Vasopressin-1 Receptor (Table 29) (vasopressin-1 receptor): 8%
